Common to all, as to assay: FACS, 293T cells expressing CXCR4 variants
Assay [1] deals with ΔN25-CXCR4 (human) (UniProt P61073).
For assay [2], the target named is ΔN31-CXCR4 (human) (UniProt P61073).
Assay [3] addresses CXCR2/CXCR4 chimera 2442 (human) (UniProt P61073).
The target of assay [4] is CXCR2/CXCR4 chimera 2444b (human) (UniProt P61073).

Sequence of ΔN31-CXCR4 (human) (P61073 32-352, stated change not applied): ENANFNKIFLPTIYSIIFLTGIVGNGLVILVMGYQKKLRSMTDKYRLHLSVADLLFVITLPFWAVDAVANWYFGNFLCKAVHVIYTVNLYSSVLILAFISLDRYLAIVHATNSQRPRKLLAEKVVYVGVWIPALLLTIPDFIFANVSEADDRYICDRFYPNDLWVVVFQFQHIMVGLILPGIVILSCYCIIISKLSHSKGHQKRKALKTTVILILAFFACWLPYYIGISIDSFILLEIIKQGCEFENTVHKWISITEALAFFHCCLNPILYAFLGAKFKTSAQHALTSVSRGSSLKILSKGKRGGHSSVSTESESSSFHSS
Sequence of ΔN25-CXCR4 (human) (P61073 26-352, stated change not applied): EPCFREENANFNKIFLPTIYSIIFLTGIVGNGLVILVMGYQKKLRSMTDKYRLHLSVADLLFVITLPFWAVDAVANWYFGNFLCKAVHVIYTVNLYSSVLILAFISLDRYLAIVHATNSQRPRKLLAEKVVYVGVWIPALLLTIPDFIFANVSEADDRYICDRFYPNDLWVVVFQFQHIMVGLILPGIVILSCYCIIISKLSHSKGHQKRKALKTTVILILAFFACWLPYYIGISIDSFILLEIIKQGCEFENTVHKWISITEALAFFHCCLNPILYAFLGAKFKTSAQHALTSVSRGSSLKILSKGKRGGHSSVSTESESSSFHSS

B1: 33-IgG1 (antibody, V domains shown)
VH: QVTLKESGGGVVQPGRSLRLSCAASGFTFTNYGLHWVRQAPGKGLEWVAVISHDGTKKYYADSVKGRFTISRDSSENTLYLQMNSLRPEDSALYYCARDGGYCSGGRCYSYGMDVWGQGTTVTVSS
VL: QSVLTQPPSASGTPGQRVTISCSGSRSNIGSNTVNWYQQLPGTAPKLLIYTNNQRPSGVPDRFSGSKSGTSASLAITGLQAEDEADYYCLSFDSSLTSYVFGTGTKVTVLG
Take B1: the binding to cells expressing the variant (+%) in assay [1] was 13%; in assay [2], 9%; in assay [3], 1.5%; in assay [4] it was 1%.

For the origin of these results see US8329178B2.
